This note sets out measurements from US20090208977A1.

Experiment [1] has as its target human BRS3 (ENSG00000102239) (human) (UniProt P32247). In words: flow cytometry, live human sperm; antibody not named (SC33404 is the only BRS3 antibody that bound). In general terms: Flow cytometry measures light scatter and fluorescence of single cells or particles in a stream.
Experiment [2] has as its target human FMR1NB (ENSG00000176988) (human) (UniProt Q8N0W7). Put plainly: flow cytometry, live human sperm; antibody not named (only one FMR1NB antibody was tried).
Sequence of UniProt Q8N0W7 (Q8N0W7 whole entry): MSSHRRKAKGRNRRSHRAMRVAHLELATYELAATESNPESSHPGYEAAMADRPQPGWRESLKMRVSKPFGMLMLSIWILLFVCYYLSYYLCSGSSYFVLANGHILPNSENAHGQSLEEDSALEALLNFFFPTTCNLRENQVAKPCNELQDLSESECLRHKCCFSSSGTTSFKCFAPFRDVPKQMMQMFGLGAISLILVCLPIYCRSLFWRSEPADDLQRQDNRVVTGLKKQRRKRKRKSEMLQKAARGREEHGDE

Sequence of UniProt P32247 (P32247 whole entry): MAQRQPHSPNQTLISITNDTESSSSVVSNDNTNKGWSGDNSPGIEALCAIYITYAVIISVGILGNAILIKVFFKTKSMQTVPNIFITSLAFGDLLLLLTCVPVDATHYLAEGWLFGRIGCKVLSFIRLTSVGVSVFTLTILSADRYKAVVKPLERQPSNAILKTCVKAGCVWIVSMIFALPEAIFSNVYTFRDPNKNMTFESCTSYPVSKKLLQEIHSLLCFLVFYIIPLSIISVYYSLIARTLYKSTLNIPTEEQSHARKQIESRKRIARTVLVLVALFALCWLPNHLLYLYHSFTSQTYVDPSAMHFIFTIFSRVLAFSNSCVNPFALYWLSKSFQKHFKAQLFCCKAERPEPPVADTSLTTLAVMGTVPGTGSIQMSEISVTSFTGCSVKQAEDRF

In experiment [1], “BRS-3 (N-14), Santa Cruz Biotechnology SC-33404 (antibody)” gave a Sperm cells showing specific binding (%) of 10.7%.

“FMR1NB antibody, Proteintech Group 11069-2-AP” returned a Sperm cells showing specific binding (%) in experiment [2] of 29.7%.
